B1: CL-512374 (antibody, V domains shown)
VH: QVQLVESGGGVVQPGRSLRLSCAASGFTFSSYGMHWVRQAPGKGLEWVAVIWYDGSNKYYADSVKGRFTISRDNSKNTLYLQMNSLRAEDTAVYYCARDGGGTTRSFDLWGRGTLVTVSS
VL: QSVLTQPPSVSGAPGQRVTISCTGSSSNIGAGYDVHWYQQLPGTAPKLLIYGNSNRPSGVPDRFSGSKSGTSASLAITGLQAEDEADYYCQSYDSSLSGSMFGGGTKLTVL
B2: CL-512319 (antibody, V domains shown)
VH: QVQLVESGGGVVQPGRSLRLSCAASGFTFSNFGMHWVRQAPGKGLEWVAVIWYDGSHKFYADSLKGRFTISRDNSKNTLYLQMNNLRAEDTAVYYCARAHPVTTDYDKYGMDVWGQGTTVTVSS
VL: DIQMTQSPSTLSSSVGDRVTITCRASQSISIWLAWIQQKPGKAPKLLIYKASSLESGVPSRFSGSGSGTEFTLTISSLQPDDFATYYCQQFYSYWTFGLGTKVEIK
B3: CL-512564 (antibody, V domains shown)
VH: QVQLVESGGGVVQPGRSLRLSCAASGFTFSNSGMHWVRQAPGKGLEWVAIIWYDGSHKFYADSVKGRFTISRDNSKNTLYLQMNSLRIEDTAMYYCVRSYNWNYPVRGDYKYGMDVWGQGTTVTVSS
VL: DIQMTQSPSTLSASVGDRVTITCRASQSISSWLAWFQQKPGKAPNLLIYMASSLQSGVPSRFSGSGSGTEFTLTISSLQPDDFATYYCQQFNTYWTFGQGTKVEIK
B4: CL-512761 (antibody, V domains shown)
VH: QVQLVESGGGVVQPGTSLRLSCAASGFTFSNYGMHWVRQAPGKGLEWVSITWYDESNKFYADSVKGRFTISRDNSKNTLYLQMNSLRAEDTAVYYCARAYDTLTGYRAQKYGMDVWGQGTTVTVSS
VL: DIQMTQSPSTLSASVGDRVTITCRASQRISTWLAWYQQKPGKAPKLLINEASRLESGVPSRFSGSGSGTEFTLTISSLQPDDFATYYCQQYNSYWTFGQGTKVEIK
B5: CL-512508 (antibody, V domains shown)
VH: QVQLVESGGGVVQPGTSLRLSCGASGFTFSSYGMHWVRQAPGKGLEWVAIIWYDGNNKYYADSVKGRFTISRDNSKNTLYLQMNSLRAEDTAVYYCAKVGQFSTSSWGAFDIWGQGTMVTVSS
VL: EIVLTQSPGTLPLSPGERATLSCRASQSVSSSQLAWYQQKPGQAPRLLIYGASSRATAIPDRFSGSGSGTDFTLTISRLEPEDFAVYYCQQYSRLWTFGQGTKVEIK
B6: CL-512469 (antibody, V domains shown)
VH: QMQLVESGGGVVQPGRSLTLSCEASGFTFSNYGMHWVRQAPGKGLEWVAIIWFDGSHRFYADAVEGRFTISRDNSKNTLFLQMTSLRAEDAAVYYCARVGQFSSSSWGAFDIWGQGTVVTVSS
VL: EIVLTQSPGTLSLSPGESVTLSCRASQIISNTHLAWYQQKPGQAPSLLIYGASSRATGIPDRFSGSGSGTDFTLTISRLEPEDFAVYYCQQYGRLWTFGQGTKVEIK
B7: CL-512870 (antibody, V domains shown)
VH: QVQLVESGGGVVQPGRSLRLSCEASGFTFSHYGMHWVRQAPGRGLEWVAIIWYDGSNTYYRDSVKGRFTISRDNSKDTLFLQMNSLRPDDTAVYYCARALYYDSGSLFDFWGQGTLVTVSS
VL: DIQMTQSPSTLSASVGDRVTITCRASQSISSWLAWYQQKPGKAPKLLIYKASSLETGVPSRFSGSGFGTEFTLSISSLQPDDFATYYCLQYNIYWTFGQGTKVEIK
B8: CL-512459 (antibody, V domains shown)
VH: QVQLVESGGGVVQPGRSLRLSCTASGFTFSDYGMHWVRQAPGKGLEWVSIIWYDGSKKYYADSVQGRFTISRDNSKNTLYLQMSSLRAEDTAVYYCARAYGSGSYYTFNYWGQGTLVTVSS
VL: EIVMTQSPATLSVSPGERATLSCRASQSVNSNLAWYQQKPGQAPRLLIYGASTRATGFPARFIGSGSGTDFTLTINSLQSEDFAVYYCQQYNHWWTFGQGTKVEIK

Target: recombinant full-length PfCSP (Plasmodium falciparum circumsporozoite protein, strain NF54) (Plasmodium falciparum NF54, UniProt P19597)
Sequence (P19597 20-375): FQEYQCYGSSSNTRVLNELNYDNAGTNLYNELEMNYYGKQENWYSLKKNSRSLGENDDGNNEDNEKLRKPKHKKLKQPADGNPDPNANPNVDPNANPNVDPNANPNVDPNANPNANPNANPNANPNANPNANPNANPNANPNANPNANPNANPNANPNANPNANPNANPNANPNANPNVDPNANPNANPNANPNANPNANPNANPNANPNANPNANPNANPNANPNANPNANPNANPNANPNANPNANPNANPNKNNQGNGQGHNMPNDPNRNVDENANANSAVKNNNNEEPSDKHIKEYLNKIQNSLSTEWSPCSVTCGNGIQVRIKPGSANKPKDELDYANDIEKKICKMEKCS

Binding result, binds:
B1
B2
B3
B4
B5
B6
B7
B8
